Measurements: patent US20050182242A1, “Global analysis of protein activities using proteome chips” (priority 2001, published 2005)

What was measured:
[1] = test system: PI(3,4,5)P3 liposomes; experiment: Yeast proteome chip probed with PI(3,4,5)P3 liposomes; details: liposome binding signal on yeast proteome chip, Cy3-streptavidin detection
Text: (§1) To identify PI-binding proteins in yeast, liposomes were used as probes because the liposome provides the most relevant physiological condition to assay the interactors. Six types of liposomes were used. Each contains phosphatidylcholine (“PC”) with 1% (w/w) N-(biotinoyl)-1,2-dihexadecanoyl-sn-glycero-3-phosphoethanolamine, triethylammonium salt (biotin DHPE). The biotinylated lipid serves as a label that can be detected by Cy3-streptavidin (21). In addition to PC, the five other liposomes contain either 5% (w/w) PI(3)P, PI(4)P, PI(3,4)P2, PI(4,5)P2, or PI(3,4,5)P3 (FIG. 3A).
(§2) The protein-liposome interaction was assayed as follows. Appropriate amounts of each lipid in chloroform were mixed and dried under nitrogen. The lipid mixture was resuspended in TBS buffer by vortexing. The liposomes were created by sonication. Blocked proteome chips were washed three to five times in PBS buffer, and the extra liquid on the glass surface was removed by tapping the slides vertically on a KIMWIPE™. 200 μl of liposome solution was added to the proteome chip and immediately covered by a hydrophobic plastic cover slip (GRACE BIO-LAB™, USA). After trapped air bubbles were removed, the chip was incubated in a humidity chamber at RT for one hour. To remove the cover slip, the chip was immersed into large volume of PBS buffer (50 ml), so that the slip would float away. The chip was then moved to a second PBS bath (>50 ml) and washed 3×5 min with shaking at RT. After removing extra liquid on the surface of the chip, about 100 μl of Cy3 or Cy5 conjugated streptavidin (PIERCE™, USA; 1:2000 to 1:4000 dilution) was added to the surface and covered by a hydrophobic plastic cover slip (GRACE BIO-LABS™, USA). The chip was incubated for greater than 30 min in the dark at RT. The chip was then washed as described above. To completely remove the liquid on the chip, the chip was spun to dryness at 1500-2000 rpm for 5-10 min at RT.
(§3) • 1. S. Fields, Y. Kohara, D. J. Lockhart, Proc. Natl. Acad. Sci. 96, 8825 (1999); A. Goffeau et al., Science 274, 563 (1996). • 2 P. Ross-Macdonald et al., Nature 402, 413 (1999); J. L., DeRisi, V. R. Iyer, P. O. Brown, Science 278, 680 (1997); E. A. Winzeler et al., Science 285, 901 (1999). P. Uetz et al., Nature 403, 623 (2000); T. Ito et al., Proc. Natl. Acad. Sci. USA. 97, 1143 (2000) • 3 H. Zhu, M. Snyder, Curr. Opin. Chem. Biol. 5, 40 (2001). • 4 M. R. Martzen et al., Science 286, 1153 (1999). • 5 H. Zhu et al., Nat. Genet. 26, 283 (2000). • 6 G. MacBeath, S. L. Schreiber, Science 289, 1760 (2000). • 7 A. Caveman, J. Cell Sci. 113, 3543 (2000). • 8 P. Arenkov et al., Anal. Biochem 278, 123 (2000). • 9 D. A. Mitchell, T. K. Marshall, R. J. Deschenes, Yeast 9, 715 (1993). The expression vector pEGH was created by inserting an RGS-HisX6 epitope tag between the GST gene and the polycloning site of pEG(KG). The yeast ORFs were cloned using the strategy described previously (5), except every step was done in a 96-well format. Plasmid DNAs confirmed by DNA sequencing were reintroduced into both yeast (Y258) and E. coli (DH5a). […] 0.1 mM calcium was present in buffers in all subsequent steps. The chip was washed three times with PBS at RT. Cy3-conjugated streptavidin (Jackson IR, USA) (1:5000 dilution) was added to the chip and incubated for 30 min at RT. After extensive washing, the chip was spun dry and scanned using a microarray scanner; the data was subsequently acquired with the GENEPIX™ array densitometry software (Axon, USA). • 12 S. S. Hook, A. R. Means, Annu. Rev. Pharmacol. Toxicol.41, 471 (2001). • 13 M. S. Cyert, R. Kunisawa, D. Kaim, J. Thorner, Proc. Natl. Acad. Sci. USA 88, 7376 (1991). • 14 D. A. Stirling, K. A. Welch, M. J. Stark, EMBO J. 13, 4329 (1994). • 15 F. Bohl, Kruse, EMBO J. 19, 5514 (2000); E. Bertrand et al., Mol. Cell 2, 437 (1998). • 16 D. C. Winter, E. Y. Choe, R. Li, Proc. Nat. Acad Sci. USA 96, 7288 (1999). • 17 C.

[2] = test system: PI(3,4)P2 liposomes; experiment: Yeast proteome chip probed with PI(3,4)P2 liposomes; details: liposome binding signal on yeast proteome chip, Cy3-streptavidin detection
Text: as §1, §2, §3

[3] = test system: PI(3)P liposomes; experiment: Yeast proteome chip probed with PI(3)P liposomes; details: liposome binding signal on yeast proteome chip, Cy3-streptavidin detection
Text: as §1
The protein-liposome interaction was assayed as follows. Appropriate amounts of each lipid in chloroform were mixed and dried under nitrogen. The lipid mixture was resuspended in TBS buffer by vortexing. The liposomes were created by sonication. Blocked proteome chips were washed three to five times in PBS buffer, and the extra liquid on the glass surface was removed by tapping the slides vertically on a KIMWIPE™. 200 μl of liposome solution was added to the proteome chip and immediately covered by a hydrophobic plastic cover slip (GRACE BIO-LAB™, USA). After trapped air bubbles were removed, the chip was incubated in a humidity chamber at RT for one hour. To remove the cover slip, the chip was immersed into large volume of PBS buffer (50 ml), so that the slip would float away. […]

[4] = test system: PI(4,5)P2 liposomes; experiment: Yeast proteome chip probed with PI(4,5)P2 liposomes; details: liposome binding signal on yeast proteome chip, Cy3-streptavidin detection
Text: as §1, §2, §3

[5] = test system: PI(4,5)P2 liposomes; experiment: Nitrocellulose membrane assay: adhered PI(4,5)P2 liposomes probed with GST fusion proteins; type: binding; details: dilution series, anti-GST antibodies, ECL
Text: A. PI(4,5)P2 liposomes were first adhered to a nitrocellulose membrane, which was blocked by BSA; a dilution series of Rim15p, Eno2p, and Hxk1p, and a GST control were used to probe the membrane. The bound proteins were detected using the anti-GST antibodies and an enhanced chemiluminescence (“ECL”) kit.
Therefore, six proteins, i.e., Rim15p, Eno2p, Hxk1p, Sps1p, Yg1059wp, and Gcn2p, were further tested for phosphoinositol binding using two types of standard assays (Williamson, 2000, Nat. Struct Biol. 7(10):834-7). For Rim15p, Eno2p, and Hxk1p, PI(4,5)P2 liposomes were first adhered to a nitrocellulose membrane, which was then blocked by BSA; different amounts of the GST fusion proteins and a GST control were used to probe the membrane, and bound proteins were detected using anti-GST antibodies. […] We also carried out the reverse assay for four GST fusion proteins, Rim15p, Sps1p, Yg1059wp, and Gcn2p (Guerra et al., 2000, Biosci. Rep. 20: 41). Different amounts of these purified proteins were spotted onto nitrocellulose filters and probed with the six different liposomes (FIG. 5B). The bound liposomes were detected using a horseradish peroxidase (“HRP”)-conjugated streptavidin.

RIM15: yeast protein kinase, regulator of glucose metabolism, GST-HisX6 fusion
PI(3, 4, 5)P3 [1]: 1219.28 | PI(3, 4)P2 [2]: 4941.00 | PI(3)P [3]: 52.50 | PI(4, 5)P2 [4]: 687.19 | binding to PI(4,5)P2 liposomes on membrane [5]: tightly bound PI(4,5)P2
